Two molecules from patent US12583908B2, “Albumin protein variants, production thereof and uses of same” (Yeda Research and Development Co. Ltd., priority 2022, dated 2026) can be followed below.

“Also recorded” adds a separate entry of the source. Some results are limits rather than exact numbers.

In one data set the test system is HEK293T cells. The experiment in a line: HEK293T cell culture with albumin variants. The format is cell-based, human. Conditions: 1 mg/ml albumin, medium with 5% FBS, 5 days. Here is the method: HEK293T adherent cells were grown in DMEM supplemented with GlutaMAX, NEAA and 5% FBS (all from Gibco) at 37° C., 5% CO2. To test the viability of the cultured cells in the presence of PROSS BSA2, HSA1 and HSA3 in comparison to the commercial BSA or HSA, respectively, cells (˜3×10^3) were seeded in 24-well plate and followed each day for 5 days. All the albumin variants were added to the cells at 1 mg/ml in duplicates, and their effect was analyzed. As a control, no protein was added to the growth medium. In each time point, cells were collected and the number of total cells, live cells and % of viable cells were determined automatically using Brightfield Cell Counter DeNovix.

A short description of data set [1]: Thermal stability by differential scanning calorimetry (DSC). The format is physicochemical. As for the experimental part:
(§1) Thermal stability measurements. Thermal stability of BSA and HSA variants (His-tagged form) and of commercial WT HSA and BSA (Sigma-Aldrich A1653 and A7638, respectively) was measured by nanoscale differential scanning fluorimetry (nanoDSF), in Prometheus NT.48 instrument (NanoTemper). The temperature was increased from 20° C. to 95° C. at 1° C./min ramp. Thermal stability of HSA variants was also measured by differential scanning calorimetry (DCS) in VP-DSC instrument (Malvern), with heating from 20° C. to 95° C. at 1° C./min and cooling at the same rate.
On the technique in general: In DSC, transitions show as peaks or steps in heat flow.

Data set [2] is described as follows: Thermal stability by nanoDSF. It is filed as physicochemical. Conditions: His-tagged variants and commercial WT; 20 to 95° C. at 1° C./min. As for the experimental part:
as §1
Background: Differential scanning fluorimetry follows unfolding on heating by fluorescence.

For a further data set, the system named is BsiEI. The experiment in a line: DNA restriction of pET28b(+) with BsiEI in albumin-containing buffer. The format is biochemical. As to conditions: 0.1 mg/ml albumin, 60-80° C., 15 min. Here is the method: Samples of pET28b(+) vector (1.5 μg) were restricted by BsiEI (10U, NEB) in 15 μl reaction volumes containing the Cutsmart buffer (NEB) or a reconstituted equivalent (50 mM Potassium acetate, 20 mM Tris-acetate, Mg-acetate, pH 7.9) supplemented with 0.lmg/ml of either commercial BSA (Sigma), HSA1, BSA2, or HSA3 variants (tagless, after gel filtration and ion exchange purification) at temperatures of 60-80° C. for 15 min using a gradient PCR (SensoQuest). Samples were then supplemented with 5 μl DNA sample buffer (150 mM TrisHCl pH 7.4, 5% SDS, 50% Glycerol, 0.05% Bromophenol Blue), heated (60° C., 10 min), and resolved on a 2% agarose-TAE gel containing 0.5 μg/mL Ethidium Bromide for 1.5h at 120V.

The next data set concerns NcoI and XhoI enzymes. The experiment in a line: DNA restriction of pET29b with NcoI and XhoI in albumin-containing buffer. It is filed as biochemical. Conditions: 0.1 mg/ml albumin, overnight at 37° C. As for the experimental part: DNA Restriction. pET29b vector with 900 bp insert was restricted with NcoI and XhoI enzymes (NEB) overnight at 37° C., using the following buffers: rCutsmart buffer (NEB, contains 0.1 mg/ml rBSA), buffer 4 (NEB, identical composition to rCutsmart buffer, but no BSA), and buffer 4 supplemented with HSA1, BSA2, and HSA3 variants (tagless, after gel filtration and ion exchange purification) at 0.1 mg/ml.

Data set [3] is described as follows: Gel filtration (size exclusion) chromatography. The format is physicochemical. As for the experimental part:
At the final stage, all the variants were purified by gel filtration chromatography, using HiLoad Superdex 200 column for preps coming from large scale expression (>500 ml culture) and HiLoad Superdex 75 column for preps coming from medium scale expression (50-500 ml culture).

Data set [4] is described as follows: Crystal structure of HSA1 with warfarin, bound myristate. It is filed as binding. Conditions: no myristate added. As for the experimental part: Crystallization and structure determination of HSA1 and Warfarin. Tagless HSA1 protein obtained from SUMO-HSA production was concentrated to 100 mg/ml in Tris buffer pH 7.0 and supplemented with 1 mM warfarin from 100 mM stock in DMSO. Crystals of HSA1 and warfarin were obtained using the hanging-drop vapor diffusion method with a Mosquito robot (TTP LabTech). All datasets were collected under cryogenic conditions at the European Synchrotron Radiation Facility (ESRF), Grenoble, France at beamline ID30B. The crystals were grown from 0.05 M NaCl, 10% PEG 4000 and 0.05 Tris pH=8.0. The crystals formed in the space group P1, with two monomers per asymmetric unit and diffracted to 2.0 Å resolution. The integrated reflections were scaled using the AIMLESS program (20) from the CCP4i2 program suite (21). HSA1 structure determined by molecular replacement with PHASER (22) using the structure of human serum albumin in complex with aristolochic acid (PDB code 6HSC). All steps of atomic refinement were carried out with the CCP4i2/REFMAC5 program (23) and by PHENIX.refine (24). The models were built into 2 mFobs-DFcalc, and mFobs-DFcalc maps by using the COOT program (25). The model was optimized using PDB_REDO (25, 26) and was evaluated with MOLPROBITY (27). […] Details of the refinement statistics of HSA1 and Warfarin structure are described in Table 1.

B1: HSA3: most highly mutated human albumin variant, 73 mutations all over the protein (Table 2) (protein)
chain: MDAHKSEVAHRFKDLGEENFKALVLIAFAQYLQKCPFEELVKMVKEVTEFAKKCVADETAENCDKSLHTLFGDKLCQVATLRETYGEMADCCAKQDPERHECFLQHKDDNPNLPRLERPEVDVMCKAFHDNEETFLNKYLYEIARRHPYFYAPELLYFAKRYKKAFTECCQAEDKAACLLPKLDALREEGKESSAKQRYKCAILQKFGERVFKAWAIARLSQRFPKAPFEEISKLVTDLTKVHKACCHGDMLECMDDRAKLAKYICENQDSISSKLKECCEKPLLERSHCIAEVENDDKPEDLPPLAADFVESKDVCKNYAEAKDVFLARFLYEYARRHPDYSVTLLLRIAKTYEDTLEKCCKAEDPHECYAKVEEEFKKLVEETQNLIKQNCELFEKLGEYYFQNALLIRYTKKMPQVPTDTLVELTRNLGKVGSKCCKLPEEKRLPCIEDYLSIVLNQLCVLHEKTPVNDRVTKCCTESLVNRRHCFSALEVDETYVPKEFNAETFTFHADLCTLSEEERQIMKQKFLVELVKHKPKATEEQLKAVMDDFTAFVEKCCKAEDPETCFAEEGSKLIAASQAALGL
modifications: Albumin Synthetic variant
Take B1: in the data set on HEK293T cells, the “Effect on number of HEK293T cells” value is given as “no adverse effect” and the “Effect on viability of HEK293T cells” value is “no adverse effect”. The “Thermal stability” value in data set [1] is listed as “stable beyond the boiling point”. Further, the “Reversibility of thermal unfolding” value in data set [1] (heating and cooling) was “reversible temperature-dependent folding and unfolding”. The “Melting temperature (DSC)” value in data set [1] (heating at 1° C./min) was 100.5 °C. For the same molecule, the “Melting temperature nanoDSF” value in data set [2] is > 95 °C. The “Restriction performance, pET28b(+) digested with BsiEI” value in the data set with BsiEI is listed as “performed equally well”. The “Restriction performance, pET29b(+) digested with NcoI and XhoI” value in the data set on NcoI and XhoI enzymes is “performed equally well”.

B2: HSA1: human serum albumin variant with 16 mutations, no surface and no binding site mutations (Table 2) (protein)
chain: MDAHKSEVAHRFKDLGEENFKALVLIAFAQYLQQCPFEDLVKMVNEVTEFAKTCVADESAENCDKSLHTLFGDKLCTVATLRETYGEMADCCAKQEPERNECFLQHKDDNPNLPRLVRPEPDVMCTAFHDNEETFLKKYLYEIARRHPYFYAPELLYFAKRYKAAFTECCQAADKAACLLPKLDELREEGKASSAKQRHKCAILQKFGERAFKAWAVARLSQRFPKAEFAEVSKLVTDLTKVHTECCHGDLLECADDRADLAKYICENQDSISSKLKECCEKPLLEKSHCIAEVENDEMPADLPSLAADFIESKDVCKNYAEAKDVFLGMFLYEYARRHPDYSVVLLLRLAKTYETTLEKCCAAADPHECYSKVFDEFKPLIEEPQNLIKQNCELFEQLGEYKFQNALLIRYTKKVPQVSTPTLVEVARNLGKVGSKCCKHPEAKRMPCAEDYLSIVLNQLCVLHEKTPVSDRVTKCCTESLVNRRPCFSALEVDETYVPKEFNAETFTFHADICTLSEEERQIKKQTALVELVKHKPKATKEQLKAVMDDFSAFVEKCCKADDKETCFAEEGKKLIAASQAALGL
modifications: Albumin Synthetic variant
As for B2, in the data set with HEK293T cells, the “Effect on number of HEK293T cells” value was “no adverse effect” and the “Effect on viability of HEK293T cells” value was “no adverse effect”. For the same molecule, the “Oligomeric state by gel filtration” value in data set [3] is listed as “completely monomeric”. The “Fatty-acid (myristate) binding” value in data set [4] is “indistinguishable from the wild type; also recorded: four molecules of myristate fatty acid are present in the structure”. In data set [2], the “Melting temperature nanoDSF” value came to 86 °C. Besides, in the data set on BsiEI, the “Restriction performance, pET28b(+) digested with BsiEI” value was “performed equally well”. In the data set on NcoI and XhoI enzymes, the “Restriction performance, pET29b(+) digested with NcoI and XhoI” value is listed as “performed equally well”.
